Bridge positions count the residues as written; N and C are the ends. Square brackets hold non-standard residues; d marks the D form. Ends that are not written are not given here. * marks the point of attachment. Pen = CC(C)(S)[C@H](N)C(=O)O; Tle = CC(C)(C)[C@H](N)C(=O)O; Pip = O=C(O)[C@@H]1CCCCN1; Propionyl = CCC(=O)*; Sar = CNCC(=O)O
B1: compound XV, SEQ ID NO: 9-[Tle12]NT(8-13) (peptide)
peptide: Propionyl-[dC]M[Pip]RLR[Sar]CRRPY[Tle]L-OH
modifications: disulfide 1-8
SMILES: CCC(=O)N[C@@H]1CSSC[C@@H](C(=O)N[C@@H](CCCNC(=N)N)C(=O)N[C@@H](CCCNC(=N)N)C(=O)N2CCC[C@H]2C(=O)N[C@@H](Cc2ccc(O)cc2)C(=O)N[C@H](C(=O)N[C@@H](CC(C)C)C(=O)O)C(C)(C)C)NC(=O)CN(C)C(=O)[C@H](CCCNC(=N)N)NC(=O)[C@H](CC(C)C)NC(=O)[C@H](CCCNC(=N)N)NC(=O)[C@@H]2CCCCN2C(=O)[C@H](CCSC)NC1=O
B2: compound XVI, SEQ ID NO: 9-[Lys8, Tle12]NT(8-13) (peptide)
peptide: Propionyl-[dC]M[Pip]RLR[Sar]CKRPY[Tle]L-OH
modifications: disulfide 1-8
SMILES: CCC(=O)N[C@@H]1CSSC[C@@H](C(=O)N[C@@H](CCCCN)C(=O)N[C@@H](CCCNC(=N)N)C(=O)N2CCC[C@H]2C(=O)N[C@@H](Cc2ccc(O)cc2)C(=O)N[C@H](C(=O)N[C@@H](CC(C)C)C(=O)O)C(C)(C)C)NC(=O)CN(C)C(=O)[C@H](CCCNC(=N)N)NC(=O)[C@H](CC(C)C)NC(=O)[C@H](CCCNC(=N)N)NC(=O)[C@@H]2CCCCN2C(=O)[C@H](CCSC)NC1=O
B3: compound XVII, SEQ ID NO: 9-[Lys9, Tle12]NT(8-13) (peptide)
peptide: Propionyl-[dC]M[Pip]RLR[Sar]CRKPY[Tle]L-OH
modifications: disulfide 1-8
SMILES: CCC(=O)N[C@@H]1CSSC[C@@H](C(=O)N[C@@H](CCCNC(=N)N)C(=O)N[C@@H](CCCCN)C(=O)N2CCC[C@H]2C(=O)N[C@@H](Cc2ccc(O)cc2)C(=O)N[C@H](C(=O)N[C@@H](CC(C)C)C(=O)O)C(C)(C)C)NC(=O)CN(C)C(=O)[C@H](CCCNC(=N)N)NC(=O)[C@H](CC(C)C)NC(=O)[C@H](CCCNC(=N)N)NC(=O)[C@@H]2CCCCN2C(=O)[C@H](CCSC)NC1=O
B4: compound XVIII, SEQ ID NO: 9-[Trp11, Tle12]NT(8-13) (peptide)
peptide: Propionyl-[dC]M[Pip]RLR[Sar]CRRPW[Tle]L-OH
modifications: disulfide 1-8
SMILES: CCC(=O)N[C@@H]1CSSC[C@@H](C(=O)N[C@@H](CCCNC(=N)N)C(=O)N[C@@H](CCCNC(=N)N)C(=O)N2CCC[C@H]2C(=O)N[C@@H](Cc2c[nH]c3ccccc23)C(=O)N[C@H](C(=O)N[C@@H](CC(C)C)C(=O)O)C(C)(C)C)NC(=O)CN(C)C(=O)[C@H](CCCNC(=N)N)NC(=O)[C@H](CC(C)C)NC(=O)[C@H](CCCNC(=N)N)NC(=O)[C@@H]2CCCCN2C(=O)[C@H](CCSC)NC1=O
B5: compound XIX, SEQ ID NO: 9-[Lys8, Trp11, Tle12]NT(8-13) (peptide)
peptide: Propionyl-[dC]M[Pip]RLR[Sar]CKRPW[Tle]L-OH
modifications: disulfide 1-8
SMILES: CCC(=O)N[C@@H]1CSSC[C@@H](C(=O)N[C@@H](CCCCN)C(=O)N[C@@H](CCCNC(=N)N)C(=O)N2CCC[C@H]2C(=O)N[C@@H](Cc2c[nH]c3ccccc23)C(=O)N[C@H](C(=O)N[C@@H](CC(C)C)C(=O)O)C(C)(C)C)NC(=O)CN(C)C(=O)[C@H](CCCNC(=N)N)NC(=O)[C@H](CC(C)C)NC(=O)[C@H](CCCNC(=N)N)NC(=O)[C@@H]2CCCCN2C(=O)[C@H](CCSC)NC1=O
B6: compound XX, SEQ ID NO: 11-[Lys8, Tle12]NT(8-13) (peptide)
peptide: Propionyl-[dC]M[Pip]RLR[Sar][Pen]KRPY[Tle]L-OH
modifications: disulfide 1-8
SMILES: CCC(=O)N[C@@H]1CSSC(C)(C)[C@@H](C(=O)N[C@@H](CCCCN)C(=O)N[C@@H](CCCNC(=N)N)C(=O)N2CCC[C@H]2C(=O)N[C@@H](Cc2ccc(O)cc2)C(=O)N[C@H](C(=O)N[C@@H](CC(C)C)C(=O)O)C(C)(C)C)NC(=O)CN(C)C(=O)[C@H](CCCNC(=N)N)NC(=O)[C@H](CC(C)C)NC(=O)[C@H](CCCNC(=N)N)NC(=O)[C@@H]2CCCCN2C(=O)[C@H](CCSC)NC1=O
B7: compound X, SEQ ID NO: 9-GGG-NT(6-13) (peptide)
peptide: Propionyl-[dC]M[Pip]RLR[Sar]CGGGKPRRPYIL-OH
modifications: disulfide 1-8
SMILES: CCC(=O)N[C@@H]1CSSC[C@@H](C(=O)NCC(=O)NCC(=O)NCC(=O)N[C@@H](CCCCN)C(=O)N2CCC[C@H]2C(=O)N[C@@H](CCCNC(=N)N)C(=O)N[C@@H](CCCNC(=N)N)C(=O)N2CCC[C@H]2C(=O)N[C@@H](Cc2ccc(O)cc2)C(=O)N[C@H](C(=O)N[C@@H](CC(C)C)C(=O)O)[C@@H](C)CC)NC(=O)CN(C)C(=O)[C@H](CCCNC(=N)N)NC(=O)[C@H](CC(C)C)NC(=O)[C@H](CCCNC(=N)N)NC(=O)[C@@H]2CCCCN2C(=O)[C@H](CCSC)NC1=O

Columns and labels:
[1] = biological target: T1, human neurotensin receptor type 1 (human, UniProt P30989 1-418); assay: competition with [3H]-neurotensin on membranes of CHO cells expressing human NTR-1; Ki from mean IC50 by Cheng-Prusoff
T1 construct: whole, on cells; Used as cell membrane homogenates (0.5 ug/well), not intact cells; also called hNTR-1; Human NTR-1

[2] = biological target: T2, rat neurotensin receptor type 1 (rat, UniProt P20789 1-424); assay: competition with [3H]-neurotensin on membranes of HEK 293 cells expressing rat NTR-1; Ki from mean IC50 by Cheng-Prusoff
T2 construct: whole, on cells; Used as membrane homogenates of transfected HEK 293 cells (0.75 ug/well), not intact cells; also called rNTR-1; rNTR1
T2 sequence (P20789 whole entry): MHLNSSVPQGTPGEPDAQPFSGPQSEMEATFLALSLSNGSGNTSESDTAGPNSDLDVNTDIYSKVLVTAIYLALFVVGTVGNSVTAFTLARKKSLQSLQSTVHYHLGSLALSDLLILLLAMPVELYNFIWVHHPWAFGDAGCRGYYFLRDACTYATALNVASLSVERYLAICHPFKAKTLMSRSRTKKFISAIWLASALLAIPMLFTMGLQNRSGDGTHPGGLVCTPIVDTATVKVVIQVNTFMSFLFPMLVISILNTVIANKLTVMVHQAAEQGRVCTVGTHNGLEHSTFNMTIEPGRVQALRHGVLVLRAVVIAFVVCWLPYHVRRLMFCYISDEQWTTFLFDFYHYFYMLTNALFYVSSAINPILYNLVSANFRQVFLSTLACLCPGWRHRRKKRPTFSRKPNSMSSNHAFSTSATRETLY

T1 sequence (P30989 whole entry): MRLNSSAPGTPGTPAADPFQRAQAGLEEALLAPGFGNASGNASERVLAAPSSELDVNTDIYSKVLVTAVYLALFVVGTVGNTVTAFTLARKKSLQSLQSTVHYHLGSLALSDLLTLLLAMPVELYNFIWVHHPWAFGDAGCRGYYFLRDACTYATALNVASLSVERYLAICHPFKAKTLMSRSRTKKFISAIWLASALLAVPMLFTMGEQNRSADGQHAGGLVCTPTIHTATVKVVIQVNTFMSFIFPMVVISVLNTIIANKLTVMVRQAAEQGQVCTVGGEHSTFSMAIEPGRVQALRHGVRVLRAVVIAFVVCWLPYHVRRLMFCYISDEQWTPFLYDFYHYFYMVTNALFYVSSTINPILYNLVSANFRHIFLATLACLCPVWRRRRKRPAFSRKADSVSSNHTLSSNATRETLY

Binder | Ki [1] [nM] | Ki [2] [nM]
B1 | 0.4 | 0.06
B2 | 0.15 | 0.12
B3 | 0.47 | 0.19
B4 | 2.98 | 0.02
B5 | 6.34 | 0.03
B6 | 0.11 | 0.08
B7 | 0.13 | –
KRPY[Tle]L (X stands for Tle) [[Lys8, Tle12]NT(8-13)] | 0.22 | 0.68
KRPW[Tle]L (X stands for Tle) [[Lys8, Trp11, Tle12]NT(8-13)] | 13.8 | 3.31
RKPY[Tle]L (X stands for Tle) [[Lys9, Tle12]NT(8-13)] | 1.7 | 4.2
RRPW[Tle]L (X stands for Tle) [[Trp11, Tle12]NT(8-13)] | 3.1 | 0.85
